Assay: soluble on expression in E. coli; label from the status in PepcDB or PDB records

Sequence | soluble on expression in E. coli
MAVSATGFEGFEKRLEISFFETTDFLDPQGKSLRSLTKSQLDEILTPAECTIVSSLTNSFVDSYVLSESSLFVYPYKIIIKTCGTTKLLLSIPHILRLADSLCLTVKSVRYTRGSFIFPGAQSYPHRSFSEEVALLDDYFGKLNAGSKAFVMGGSDNNPQRWHVYSASSTEESAVCDKPVYTLEMCMTGLDNIKASVFFKTNSVSASEMTISSGIRNILPGSEICDFNFEPCGYSMNSIEGDAVSTIHVTPEDGFSYASFETVGYDLKALNFKELVDRVLVCFGPEEFSVAVHANLGTEVLASDCVADVNGYFSQERELEELGLGGSVLYQRFVKTVECCSPKSTLGFC | not soluble
MAHHHHHHMHTLVNFYTKGSDPVHKATIMPRGMSLGVTWKIPISDKYSQKIRDVQSEIDILMGGLVSEEIIFGKNNVTTGCSSDLQRATHIAQSLVMNYGVGINEENISMFLQDKKNISEEMKIKIDKSIQRILLDSYNRAKKVLNQHIDELHRVASALVEYETLTSDEIKLAMQGKHDQIRKNRELKQKEFNLKDSRIS | soluble
MAHHHHHHMSTVEELKFIWKFLFSHMNTEKSKEEICDEKKYEENIILLKKLMRTENIKFDQKYNAINILEKLKDIEDIQYEDILNDYAKNFLTFLKGSFEKVAEEIQINDKISFRRNELIKQDLNNKLQNLNHNYNLEYINLNKCLGTEDFESQLNASLKFNSLKDILSKLLKEMKDYEIQYNNLSDTDKFLDMKICELENYLNNTNQNS | not soluble
FPDPSFIIDAEGRFLDCLTDPETMLTVDDTDTLVGQTLHEFFPHDTADSLLAAVRAALRTGSFQSVEYKLQVPSDKRWFEARVAPLESRAYDPDTVIFVARDI | not soluble
EQLPVLQTVPFAGSAEPVSLTRESVERSVGEANMQEQRKRVHAMLRDYELQLRINSDASQQDAHLTPDSE | not soluble
VDYTLRRRSLLAEVYSGRTGVSEVCDANPYLLRAAKFHGKPSRVICPICRKEQLTLVSWVFGEHLGAVSGSARTAEELILLATRFSEFAVHVVEVCRTCSWNHLVKSYVLGAARPARPPRGSGGTRTARNGARTASE | not soluble
MGSDKIHHHHHHMPLPRGSSLVRIPGNIPVGLDMKERLAYFEYDPLVSGQRAYAVAALLPQGFTRTLLPACVGSSGEALLPLLGYAAVGLKEGKIYVAAVQSDEHRKWHPHYYNTERLPAKINRMLKKYPGNMILHQLARCSLEYGCFTAQNIFYQRWEGGIPSMKACNAACIACISEDHCGTASPQNRLDFAPTVQEIVEVASEHLLRARDAIISFGQGCEGEPALNGKRLSQAIRRIRDLCAQGTINMNTNAGYCEGVKLMTDAGMDSMRVTIFSAIEENYMTYHCPQDYSLADVEYSITYAREHGVKISLNLLTFPGFTDRMEEVEALLEFVRKNQVDMIQFRNLNIDPEFLMRIFPGKSPVLGISNFVKLLESELPGVRIGSYTHPVHR | not soluble
MPISTPQEIIEDIRQGKMVILMDDEDRENEGDLIMAAEHITPAAINFMATHGRGLICLTLTKERCRRLGLNPMVQDNNAQYTTNFTVSIEAAEGVTTGISAADRARTVQAAVAKEAKAADLVQPGHIFPLAAQDGGVLTRAGHTEAGCDLARLAGLEPASVIVEILNDDGTMARRPDLEVFAEKHGLKLGTIADLIEYRNHTETTIERVAQCKLPTEYGEFELVTYRDIIDKQIHFALRKGDITSAPTLVRVHLQDTFTDLLHSNRAAERSWPLATAMQRIGQEGGVLVILGHEESSELLLHRVKMFELQDKGEAPAMAKKQGTSRRVGVGSQILADLGVKEMRLLSSPNKKYHALGGFGLNVVEYVCE | not soluble
MGFMIEHWDFSTPMATQETTTAEHIQPNHWYHCERLHPDIRSWLEDNHVPRATVDHLLADESRPSFHPLDDDNFMLILRGINMNENASPEDMLSIRILYFQGALISTRKIPSRAIMEIRQALAEHKGPKSLASLLNQIIEGLNGKIDLYLDTIEETLNEFDVNDESTYNHIAAQKALISIKRFIRPQQYAIRDLIESESELVTSRPHQYRFAHNNITRINETIEFYLGEVALFQDEIKHNRDEKTNKNS | soluble
MSLNKIKILPLAIALALSGCGSDETTPIDTGSHVASPDWQDQIIYFLMIDRFNDGDSALNDQGQNEFDPTSDKKFSGGDLVGVSDKLSYIEDLGATSIWITPPVANQWWDAEQNYGGYHGYWARDFQKVDEHFGDMESYQALAREVHARNMFLIQDIVTNHVGNFFTYDDPYSYDPSLPCQGFRLIKNALPAGQELPYPLNMNECKTDGTGSYHWTPTITDHNDPVQEKTWQLSDLDDLNTSDPEVRAYLKESYRKWIREVGVDGFRIDTVKFVEHDFWSDFLHADDGVMTQAVDTGRDNFLTFGEVFETSTPYHTEGEEKMLTYIGESGSPKQLTSVLNFPLQATMTRVFASGQPTDYLRFRLEKMMEMFPNPYIMPNFIDNHDMPRFLSQGSVNDMKQALITMMSVPGIPVIYQGTEQAMSAARDAMFAGGYREDGNYVDSFDQNSEMYLFIQELAKLRTENKVMTRGEIKVIGSDKAGAGVFAFTRTLDNDEVLVVMNTSNSPMLMNQLDVEQAGGTVFKQQIMSNWADAPEQLVADENGHVTLELPAKSAVIYSKTSSNQSVNTPDLNIQLAQDWEGKTITGDIVIAGSANANEKLNLVVDGNLETAQTITVGADGQFSVTLSTRHFAIGEQQHRFAIYSTEKKAGIEDVNFVSNLSWSNTPDDTIDDAGDAQDGVGGPNGNYSLPTDPTFDKDNSQLAINKAEVFTVGSNVRLTFTMDKITDTWLPPNGFDHVGFTIFIDLPEEAATNLSELPKINASMPNGTWSRNAVVFGWQSSIYNTKGANATTWGEAVTPAPTVTVDKANNTISMDFASDALGRPESLDGIRFYVTTWDLDGLSATYRPLEQDKGPWNFSGGASDESKIWDDLPIITLSEGHHHHHH | soluble
MWLRDPFPRLYPDGDFQMACDRFFGNPYDSDNWVNGGFTYVRSNNRSIEFYKFWHKSRLDYPDLHDQDVFNRIKHEPFISEIGIQMRFFDTVYFGGFCQTSRDINLVCTMHANCCIGLDKKLHDLNLVLDDWRKYLSLSEPVQNTTWSVPMKCLED | not soluble
SETWSVEQVCSWLVEKNLGELVHRFQEEEVSGAALLALNDRMVQQLVKKIGHQAVLMDLIKKYKQNTQGLKSPENPKKAALVMQTEAARDYRDKESSSPARHGEQMPSFYPAENLDNGLIDQRVLKQRRNVKQILARSKALQWTKSYVLPEFPYDVKCMLAEQKCPDHSMRIRIIEFLQADMTKYLEGSLYPSTQQYNDVVNALLQAHPFLDEDGCGFAGV | soluble
MGSDKIHHHHHHMALSLRACILLLKEHHLLKSAAIQNTEDVDMTGIAYDSRKVSGPTLFFCKGDKFRPIYLSMAKDNGARTYVAEKPYVEGNGLNALIVRNITKAMAILSAAFFDYPQDDLFVIAYTGTKGKTTASYFTEAILNEARPRHIALFSTIDTVVGPEPDQRFKSNLTTPESLDLFRDMREAVENGMTHLVMEVSSQAYLRNRVFGLTYDVGFFLNITPDHIGPNEHPTFANYLHNKLQLLVNARKVVINAETEHFDQVYAAATTTTYPESIYLFASAGFRPKRDDIDIDFRFDSQEADVAESRFTLVPVTEKAAALNIGGHYSLALIGDFNESNATAAIIGAGLAGVDASAAVPGIAKVKIPGRMEHTKVAGHGAVYVDYAHNYASMKALLSFLKHAYKDPRLLVVVGSPGDKGVSRRPGFAKVLTEFATEAFLTTDDPGYEDPANIIEEIDSKIDHSKVKVHKVLDRKKAIAEAISDSGPNDIVVVAGKGADPYQKVRGVNTPWPTDMAVVKQVAKSLQEG | not soluble
MENFIDTLENWRDQKQIISVICKDGIKIDDSIITSFKASKDVGISNGLRIQLTFQEINFKAIVGQTDVSAATGRTSTTNDGGATSKKNTGNTTTSLGSPMLTCKELFSYSASELSDEALKARVTCSKSVSVKNGESTFTA | not soluble
GMTLPPYHTPLPAETLRALSIPAPWTFGLADRVRFGELDAIGHVNHTAYLRWYESFRLPFLKARHVTDYGPTSPRLVLKQVHCTYLAEMGMGEDYVITGRVSNFRTTSFTMEFACWRLGDAVECTSEGSAVVVLLNRDGSGRYPIPEAGRASFVTEDGVLAAG | soluble
MRKVPIITADEAAKLIKDGDTVTTSGFVGNAIPEALDRAVEKRFLETGEPKNITYVYCGSQGNRDGRGAEHFAHEGLLKRYIAGHWATVPALGKMAMENKMEAYNVSQGALCHLFRDIASHKPGVFTKVGIGTFIDPRNGGGKVNDITKEDIVELVEIKGQEYLFYPAFPIHVALIRGTYADESGNITFEKEVAPLEGTSVCQAVKNSGGIVVVQVERVVKAGTLDPRHVKVPGIYVDYVVVADPEDHQQSLDCEYDPALSGEHRRPEVVGEPLPLSAKKVIGRRGAIELEKDVAVNLGVGAPEYVASVADEEGIVDFMTLTAESGAIGGVPAGGVRFGASYNADALIDQGYQFDYYDGGGLDLCYLGLAECDEKGNINVSRFGPRIAGCGGFINITQNTPKVFFCGTFTAGGLKVKIEDGKVIIVQEGKQKKFLKAVEQITFNGDVALANKQQVTYITERCVFLLKEDGLHLSEIAPGIDLQTQILDVMDFAPIIDRDANGQIKLMDAALFAEGLMGLKEMKS | soluble
MLNNLLQQATSPNGRARQYAIEHTVELTNLIPPTVSYESGGHTLIIGPTMLIERITEPLSSMASITLLSVDGEPGTQSNLYYADTVEISGFLGAFSVNVENHGKRVNLAQAAIGGNSFDIVLDMSLNGLMSEEVPVPGYFPVGRGYPKLADALEEIPTLMGTFDKPKYFRLDPDLCAHSSRGVKGCERCVDACPAGALSSEGSEQTGHRIQINPYLCQGVGTCATACPTEAIHYALPNPTDTQKFIERLLANYHQAGGEKPIVLICSSRHESYNVMALKVLPDNVIPVVVEELPSVGIDSWFAALVNGATQVLFAASRHMPPTIQRILNQEMSMAQSLLTHLGLPKETIDILYLESLREGMPVLCEQPLGLKLGDLIGNKRERLFTALDALAETLNAQPSVQPLSISAPYGTIECQTSDCTLCMSCVAVCPTRALHLAGDSPALRFIEQDCVQCGLCVKACPEQVLSATPQLNWNKAARQGVVTLHQEEPAKCLRCHKPFAPQSMITMLQTKLRGHSHFATPEALNRIAMCEDCRVVDMFEAMAHDPEQQLKY | not soluble
MIDPVCGMKVDKNAKFKSTYNGKEYYFCSEHCKVEFDRNPIKYTR | not soluble
MGSDKIHHHHHHMDKLSFNIFPNVNFIDLCMYQFGHEQCEPGHSFGPATRNHYLFHYVLSGTGTLMADNAKGITQTYNIKSGQGFLIFPGQINTYIADDKLPWEYIWIEFDGLRVKEALTTTELTKNNPVYHTHSKDIREKLVEEMLYITRHPSESPYHLIGHMYLFLDYLMQSAKSSKLVPGGKMSDFYIKEAMNYIEQNFQNDISIEDIAGVCGINRSYLGKIFKNSVGHSPQEFLMNYRMIKATELLKLTSLSIADVGSAVGYENQLHFSRAFKNIYGVAPREWRNEHK | not soluble
VMVFISSSLNSFRSEKRYSRSLTIAEFKCKLELVVGSPASCMELELYGADDKFYSKLDQEDALLGSYPVDDGCSIHVIDHSG | soluble
MTGYPDVAAFDLDYTIWPCYCDTHLHGPFKPVKSSNGEVLTIICRDGYELTIYKDIPRILGDLKDNGVKLMTASRTWAPEIAQEILKIFKVKYAGVVTPLANLFDEFQWGERSKIGHLRDGLKDLYNTSDLKSKKICLFDDESRNKEVEKYGVKFVYVRDPENGPSWKLYQDYLSGKV | not soluble
MNYHQYYPVDIVNGPGTRCTLFVSGCVHECPGCYNKSTWRVNSGQPFTKAMEDQIINDLNDTRIKRQGISLSGGDPLHPQNVPDILKLVQRIRAECPGKDIWVWTGYKLDELNAAQMQVVDLINVLVDGKFVQDLKDPSLIWRGSSNQVVHHLRLEHHHHHH | soluble

Source: the DeepSol protein solubility set
